Columns and labels:
[1] = molecular target: Caulobacter crescentus ClpX (C. crescentus) (UniProt B8GX14)
[2] = molecular target: Escherichia coli ClpX (E. coli) (UniProt P0A6H1)
Sequence of UniProt P0A6H1 (P0A6H1 whole entry): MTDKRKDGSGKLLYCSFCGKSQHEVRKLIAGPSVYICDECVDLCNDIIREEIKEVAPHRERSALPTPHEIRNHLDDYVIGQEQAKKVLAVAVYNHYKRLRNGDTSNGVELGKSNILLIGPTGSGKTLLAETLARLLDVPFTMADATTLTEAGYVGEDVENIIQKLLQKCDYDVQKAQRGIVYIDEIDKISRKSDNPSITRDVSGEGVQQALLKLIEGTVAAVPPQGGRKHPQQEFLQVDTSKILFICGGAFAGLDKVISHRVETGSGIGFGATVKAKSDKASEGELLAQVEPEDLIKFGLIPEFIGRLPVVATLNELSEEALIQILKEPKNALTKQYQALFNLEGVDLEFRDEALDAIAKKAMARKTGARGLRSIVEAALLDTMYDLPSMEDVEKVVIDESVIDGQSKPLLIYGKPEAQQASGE

Sequence of UniProt B8GX14 (B8GX14 whole entry): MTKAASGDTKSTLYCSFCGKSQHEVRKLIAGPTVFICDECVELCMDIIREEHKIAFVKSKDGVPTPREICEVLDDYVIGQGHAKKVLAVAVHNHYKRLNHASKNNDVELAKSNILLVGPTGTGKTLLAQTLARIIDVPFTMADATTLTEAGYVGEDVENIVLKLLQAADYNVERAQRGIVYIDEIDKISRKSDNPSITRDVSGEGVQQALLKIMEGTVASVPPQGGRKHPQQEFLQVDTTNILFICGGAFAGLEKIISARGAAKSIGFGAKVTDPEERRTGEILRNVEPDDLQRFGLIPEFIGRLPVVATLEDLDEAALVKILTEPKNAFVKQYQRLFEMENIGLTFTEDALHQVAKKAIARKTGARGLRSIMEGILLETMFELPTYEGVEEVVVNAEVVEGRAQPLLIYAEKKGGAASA

Substance “Caulobacter crescentus ClpP (from UniProt B8GX16 1-209) (enzyme)” has a K (activation): degradation of 1 uM GFP-ssrA by 50 nM ClpX6 with varying concentrations of ClpP14, initial rates fitted to a first-order binding equation [1] of 9.1 nM and a K (activation): degradation of 1 uM GFP-ssrA by 50 nM ClpX6 with varying concentrations of ClpP14, initial rates fitted to a first-order binding equation [2] of 12.1 nM.
“Escherichia coli ClpP (from UniProt P0A6G7 15-207) (enzyme)” was tested, and the K (activation): degradation of 1 uM GFP-ssrA by 50 nM ClpX6 with varying concentrations of ClpP14, initial rates fitted to a first-order binding equation [2] was 24.1 nM.
